This is an account of results in article PMC4558169, “Anchoring of both PKA-RIIα and 14-3-3θ regulates retinoic acid induced 16 mediated phosphorylation of heat shock protein 70” (Oncotarget, 2015).

For one assay, the target named is 14-3-3θ (UniProt P27348). The assay can be described thus: anti-Flag co-IP, 14-3-3θ blot. To be noted: reference: wild type; sites S325.
Assay [1] addresses T1, Flag-tagged retinoic acid induced 16 (RAI16), full length (UniProt Q86V87 1-743).
T1 construct: 743 residues by the printed fragment limits; also called Flag-RAI16; Fam160B2; source: HEK293T, transfected (pcDNA3.1), in lysate
The assay can be described thus: co-IP; Flag-tagged RAI16 or its mutants expressed in HEK293T cells, alone or with Ha-tagged PKA-RIIα; anti-Flag immunoprecipitation, endogenous 14-3-3θ detected with anti-14-3-3θ antibody; cells untreated, treated with forskolin or with forskolin + PKImyr. As to conditions: partners not purified.

T1 sequence (Q86V87 whole entry, the tested form may be a part): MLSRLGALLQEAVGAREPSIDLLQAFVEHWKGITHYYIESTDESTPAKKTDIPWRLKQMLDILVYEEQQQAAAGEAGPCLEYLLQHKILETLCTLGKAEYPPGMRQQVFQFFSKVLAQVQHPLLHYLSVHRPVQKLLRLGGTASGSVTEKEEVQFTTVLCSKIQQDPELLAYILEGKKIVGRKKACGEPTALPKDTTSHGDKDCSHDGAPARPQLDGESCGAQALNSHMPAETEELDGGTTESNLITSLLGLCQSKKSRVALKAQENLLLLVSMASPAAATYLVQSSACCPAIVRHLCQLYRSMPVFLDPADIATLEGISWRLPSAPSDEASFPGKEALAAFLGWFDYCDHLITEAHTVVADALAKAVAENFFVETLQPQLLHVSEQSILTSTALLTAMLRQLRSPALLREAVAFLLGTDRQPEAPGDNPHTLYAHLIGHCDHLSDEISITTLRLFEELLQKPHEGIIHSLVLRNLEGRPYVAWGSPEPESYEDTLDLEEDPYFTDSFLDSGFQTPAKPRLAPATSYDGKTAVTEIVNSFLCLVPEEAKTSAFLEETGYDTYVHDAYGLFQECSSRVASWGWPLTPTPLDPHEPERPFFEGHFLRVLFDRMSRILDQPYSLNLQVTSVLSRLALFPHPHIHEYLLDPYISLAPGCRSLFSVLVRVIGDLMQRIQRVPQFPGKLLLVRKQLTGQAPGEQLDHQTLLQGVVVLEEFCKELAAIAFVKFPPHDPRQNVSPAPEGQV

As to “RAI16 (retinoic acid induced 16) (from UniProt Q86V87) S325A”, the “binding against the reference” value with 14-3-3θ is “lost”.

B1: endogenous 14-3-3θ (natural protein, human (endogenous in HEK293T), UniProt P27348 1-245, looked up)
chain: MEKTELIQKAKLAEQAERYDDMATCMKAVTEQGAELSNEERNLLSVAYKNVVGGRRSAWRVISSIEQKTDTSDKKLQLIKDYREKVESELRSICTTVLELLDKYLIANATNPESKVFYLKMKGDYFRYLAEVACGDDRKQTIDNSQGAYQEAFDISKKEMQPTHPIRLGLALNFSVFYYEILNNPELACTLAKTAFDEAIAELDTLNEDSYKDSTLIMQLLRDNLTLWTSDSAGEECDAAEGAEN
notes: 14-3-3 protein theta, endogenous in HEK293T cells; source: endogenous, HEK293T lysate
For the molecule B1, the “fold change of co-precipitated 14-3-3θ with forskolin against untreated cells” value in assay [1] was determined as 3.25 fold.
